Test results: PMC5453099, “Vascular Endothelial Growth Factor (VEGF) Detection Using an Aptamer and PNA-Based Bound/Free Separation System”

Biological target: VEGF (vascular endothelial growth factor) (UniProt P15692-4 27-191)
Experiment: bound/free separation: fluorescence of supernatant after capture of free aptamer on PNA beads; 10 nM aptamer, CaPNA4 beads; signal rises with 5-50 nM VEGF; detection limit 25 nM (not a Kd); TBS: 10 mM Tris-HCl pH 7.0, 100 mM NaCl; room temperature; protein and aptamer 10 min, then CaPNA beads 5 min (beads blocked with 4% skimmed milk and 4 mM biotin)
Conditions: protein: commercial; chain copies: 2; label: 5'-fluorescein; predicted three-way junction with stem-loops

VEGF (vascular endothelial growth factor), sequence (P15692 other isoform, or with tags, fused parts or gaps): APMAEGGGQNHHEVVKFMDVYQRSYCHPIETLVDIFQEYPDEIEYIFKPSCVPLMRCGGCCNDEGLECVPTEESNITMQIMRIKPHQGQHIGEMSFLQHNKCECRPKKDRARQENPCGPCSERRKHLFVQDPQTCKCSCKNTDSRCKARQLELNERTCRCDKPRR

B1: VEGF aptamer (58-mer) (structured_DNA)
DNA: CTGGCCAGGTACCAAAAGATGATCTTGGGCCCGTCCGAATGGTGGGTGTTCTGGCCAG
Does B1 bind?
Result: binds
